T1: human BCMA (B-cell maturation antigen) on cells (human, UniProt Q02223 1-184)
T1 sequence (looked up): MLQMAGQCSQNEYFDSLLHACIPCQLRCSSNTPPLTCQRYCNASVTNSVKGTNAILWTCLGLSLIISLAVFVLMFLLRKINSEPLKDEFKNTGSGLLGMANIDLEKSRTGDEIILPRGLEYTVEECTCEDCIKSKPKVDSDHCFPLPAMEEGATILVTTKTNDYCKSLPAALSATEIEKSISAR

T2: BCMA-Fc antigen (R&D Systems) (UniProt Q02223 1-54)
T2 construct: also called BCMA fc fusion protein (R&D Systems, cat #193-BC-050); recombinant BCMA-Fc; not shown: Fc portion of the bought fusion protein
T2 sequence (looked up): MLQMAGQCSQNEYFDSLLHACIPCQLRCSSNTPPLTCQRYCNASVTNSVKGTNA

B1: BCMA-9 CAR (139108) (other)
chain: QVQLVESGGGLVKPGGSLRLSCAASGFTFSDYYMSWIRQAPGKGLEWVSYISSSGSTIYYADSVKGRFTISRDNAKNSLYLQMNSLRAEDTAVYYCARESGDGMDVWGQGTTVTVSSASGGGGSGGRASGGGGSDIQMTQSPSSLSASVGDRVTITCRASQSISSYLNWYQQKPGKAPKLLIYAASSLQSGVPSRFSGSGSGTDFTLTISSLQPEDFATYYCQQSYTLAFGQGTKVDIKTTTPAPRPPTPAPTIASQPLSLRPEACRPAAGGAVHTRGLDFACDIYIWAPLAGTCGVLLLSLVITLYCKRGRKKLLYIFKQPFMRPVQTTQEEDGCSCRFPEEEEGGCELRVKFSRSADAPAYKQGQNQLYNELNLGRREEYDVLDKRRGRDPEMGGKPRRKNPQEGLYNELQKDKMAEAYSEIGMKGERRRGKGHDGLYQGLSTATKDTYDALHMQALPPR
notes: also called OG62-93QB
B2: BCMA-15 CAR (139114) (other)
chain: EVQLVESGGGLVQPGGSLRLSCAVSGFALSNHGMSWVRRAPGKGLEWVSGIVYSGSTYYAASVKGRFTISRDNSRNTLYLQMNSLRPEDTAIYYCSAHGGESDVWGQGTTVTVSSASGGGGSGGRASGGGGSEIVLTQSPGTLSLSPGERATLSCRASQSIGSSSLAWYQQKPGQAPRLLMYGASSRASGIPDRFSGSGSGTDFTLTISRLEPEDFAVYYCQQYAGSPPFTFGQGTKVEIKTTTPAPRPPTPAPTIASQPLSLRPEACRPAAGGAVHTRGLDFACDIYIWAPLAGTCGVLLLSLVITLYCKRGRKKLLYIFKQPFMRPVQTTQEEDGCSCRFPEEEEGGCELRVKFSRSADAPAYKQGQNQLYNELNLGRREEYDVLDKRRGRDPEMGGKPRRKNPQEGLYNELQKDKMAEAYSEIGMKGERRRGKGHDGLYQGLSTATKDTYDALHMQALPPR
notes: also called B15; PY43-48LB
B3: BCMA-12 CAR (139111) (other)
chain: EVQLLESGGGLVQPGGSLRLSCAVSGFALSNHGMSWVRRAPGKGLEWVSGIVYSGSTYYAASVKGRFTISRDNSRNTLYLQMNSLRPEDTAIYYCSAHGGESDVWGQGTTVTVSSASGGGGSGGRASGGGGSDIVMTQTPLSLSVTPGQPASISCKSSQSLLRNDGKTPLYWYLQKAGQPPQLLIYEVSNRFSGVPDRFSGSGSGTDFTLKISRVEAEDVGAYYCMQNIQFPSFGGGTKLEIKTTTPAPRPPTPAPTIASQPLSLRPEACRPAAGGAVHTRGLDFACDIYIWAPLAGTCGVLLLSLVITLYCKRGRKKLLYIFKQPFMRPVQTTQEEDGCSCRFPEEEEGGCELRVKFSRSADAPAYKQGQNQLYNELNLGRREEYDVLDKRRGRDPEMGGKPRRKNPQEGLYNELQKDKMAEAYSEIGMKGERRRGKGHDGLYQGLSTATKDTYDALHMQALPPR
notes: also called HU13-58ZB
B4: BCMA-13 CAR (139112) (other)
chain: QVQLVESGGGLVQPGGSLRLSCAVSGFALSNHGMSWVRRAPGKGLEWVSGIVYSGSTYYAASVKGRFTISRDNSRNTLYLQMNSLRPEDTAIYYCSAHGGESDVWGQGTTVTVSSASGGGGSGGRASGGGGSDIRLTQSPSPLSASVGDRVTITCQASEDINKFLNWYHQTPGKAPKLLIYDASTLQTGVPSRFSGSGSGTDFTLTINSLQPEDIGTYYCQQYESLPLTFGGGTKVEIKTTTPAPRPPTPAPTIASQPLSLRPEACRPAAGGAVHTRGLDFACDIYIWAPLAGTCGVLLLSLVITLYCKRGRKKLLYIFKQPFMRPVQTTQEEDGCSCRFPEEEEGGCELRVKFSRSADAPAYKQGQNQLYNELNLGRREEYDVLDKRRGRDPEMGGKPRRKNPQEGLYNELQKDKMAEAYSEIGMKGERRRGKGHDGLYQGLSTATKDTYDALHMQALPPR
notes: also called B13; KG66-98AB
B5: BCMA-14 CAR (139113) (other)
chain: EVQLVETGGGLVQPGGSLRLSCAVSGFALSNHGMSWVRRAPGKGLEWVSGIVYSGSTYYAASVKGRFTISRDNSRNTLYLQMNSLRPEDTAIYYCSAHGGESDVWGQGTTVTVSSASGGGGSGGRASGGGGSETTLTQSPATLSVSPGERATLSCRASQSVGSNLAWYQQKPGQGPRLLIYGASTRATGIPARFSGSGSGTEFTLTISSLQPEDFAVYYCQQYNDWLPVTFGQGTKVEIKTTTPAPRPPTPAPTIASQPLSLRPEACRPAAGGAVHTRGLDFACDIYIWAPLAGTCGVLLLSLVITLYCKRGRKKLLYIFKQPFMRPVQTTQEEDGCSCRFPEEEEGGCELRVKFSRSADAPAYKQGQNQLYNELNLGRREEYDVLDKRRGRDPEMGGKPRRKNPQEGLYNELQKDKMAEAYSEIGMKGERRRGKGHDGLYQGLSTATKDTYDALHMQALPPR
notes: also called HJ64-62PB

Assays:
[1] = target: T1, human BCMA (B-cell maturation antigen) …; assay: cell-based or functional assay
[2] = target: T2, BCMA-Fc antigen (R&D Systems); assay: flow cytometry; BCMA-Fc staining of CAR-transduced JNL cells
Method: Jurkat-NFAT-luciferase (JNL) cells transduced with BCMA CAR constructs were evaluated for activation in response to BCMA-expressing target cell lines. Small-scale viral supernatant samples were generated in HEK293T cells for transduction of JNL cells. On Day 3 following transduction, BCMA CAR-transduced JNL cells were incubated with target cells at an effector-to-target (E:T) ratio of 6:1. Target cell lines were: K562-BCMA (engineered to stably express BCMA), K562 (parental line), and BCMA positive multiple myeloma cell lines, NCI-H929 and RPMI 8226. JNL activation was measured using Bright-Glo substrate (Promega) on Day 4. CAR expression on transduced JNL was assessed on Day 7 with BCMA-Fc antigen and Biotin-Protein L reagent (Table 21).

| Binder | JNL binding assay, ratio to K562; K562-BCMA [1] | JNL binding assay, ratio to K562; NCI-H929 [1] | JNL binding assay, ratio to K562; RPMI 8226 [1] | Proliferation CD3, ratio to no target; K562-BCMA [1] | Proliferation CD3, ratio to no target; KMS11-luc [1] | Proliferation CD3, ratio to no target; NCI-H929 [1] | Proliferation CD3, ratio to no target; RPMI 8226 [1] | Proliferation CD4, ratio to no target; K562-BCMA [1] | Proliferation CD4, ratio to no target; KMS11-luc [1] | Proliferation CD4, ratio to no target; NCI-H929 [1] | Proliferation CD4, ratio to no target; RPMI 8226 [1] | Proliferation CD8, ratio to no target; K562-BCMA [1] | Proliferation CD8, ratio to no target; KMS11-luc [1] | Proliferation CD8, ratio to no target; NCI-H929 [1] | Proliferation CD8, ratio to no target; RPMI 8226 [1] | % CAR+ (BCMA-Fc detection) [2] |
| --- | --- | --- | --- | --- | --- | --- | --- | --- | --- | --- | --- | --- | --- | --- | --- | --- |
| B1 | 1.59 ratio | 1.99 ratio | 1.54 ratio | 1.51 ratio | 1.66 ratio | 4.63 ratio | 2.5 ratio | 1.59 ratio | 1.49 ratio | 4.45 ratio | 2.24 ratio | 1.43 ratio | 1.83 ratio | 4.79 ratio | 2.76 ratio | 54.7% |
| B2 | 2.91 ratio | 2.79 ratio | 3.49 ratio | 3.94 ratio | 3.51 ratio | 4.08 ratio | 3.73 ratio | 4.87 ratio | 3.82 ratio | 4.82 ratio | 4.24 ratio | 1.89 ratio | 2.73 ratio | 2.42 ratio | 2.51 ratio | 36.9% |
| B3 | 3.17 ratio | 2.78 ratio | 3.36 ratio | 2.9 ratio | 2.76 ratio | 2.98 ratio | 3.27 ratio | 3.42 ratio | 2.94 ratio | 3.41 ratio | 3.66 ratio | 1.51 ratio | 2.11 ratio | 1.76 ratio | 2.12 ratio | 23.4% |
| B4 | 3.74 ratio | 2.68 ratio | 3.66 ratio | 3.47 ratio | 3.2 ratio | 3.46 ratio | 3.48 ratio | 5.4 ratio | 3.84 ratio | 5.05 ratio | 4.44 ratio | 2.34 ratio | 2.79 ratio | 2.53 ratio | 2.86 ratio | 32.7% |
| B5 | 2.81 ratio | 2.65 ratio | 3.31 ratio | 4.12 ratio | 3.42 ratio | 3.86 ratio | 3.93 ratio | 5.73 ratio | 3.97 ratio | 5.07 ratio | 4.84 ratio | 2.65 ratio | 2.83 ratio | 2.73 ratio | 3.03 ratio | 31.8% |
